Laboratory results taken from US20210054097A1 (Novo Nordisk, published 2021).
Ends that are not written are not given here.

T1: FX activation peptide 12-mer SVAQATSSSGEA (human)
T1 peptide: SVAQATSSSGEA-biotin

T2: FX activation peptide 12-mer VAQATSSSGEAP (human)
T2 peptide: VAQATSSSGEAP-biotin

T3: FX activation peptide 12-mer AQATSSSGEAPD (human)
T3 peptide: AQATSSSGEAPD-biotin

T4: FX activation peptide 12-mer QATSSSGEAPDS (human)
T4 peptide: QATSSSGEAPDS-biotin

T5: FX activation peptide 12-mer SSSGEAPDSITW (human)
T5 peptide: SSSGEAPDSITW-biotin

T6: FX activation peptide 12-mer SGEAPDSITWKP (human)
T6 peptide: SGEAPDSITWKP-biotin

T7: FX activation peptide 12-mer GEAPDSITWKPY (human)
T7 peptide: GEAPDSITWKPY-biotin

T8: FX activation peptide 12-mer EAPDSITWKPYD (human)
T8 peptide: EAPDSITWKPYD-biotin

T9: FX activation peptide 12-mer APDSITWKPYDA (human)
T9 peptide: APDSITWKPYDA-biotin

T10: FX activation peptide 12-mer PDSITWKPYDAA (human)
T10 peptide: PDSITWKPYDAA-biotin

T11: FX activation peptide 12-mer DSITWKPYDAAD (human)
T11 peptide: DSITWKPYDAAD-biotin

T12: FX activation peptide 12-mer SITWKPYDAADL (human)
T12 peptide: SITWKPYDAADL-biotin

T13: FX activation peptide 12-mer ITWKPYDAADLD (human)
T13 peptide: ITWKPYDAADLD-biotin

T14: FX activation peptide 12-mer TWKPYDAADLDP (human)
T14 peptide: TWKPYDAADLDP-biotin

T15: FX activation peptide 12-mer KPYDAADLDPTE (human)
T15 peptide: KPYDAADLDPTE-biotin

T16: FX activation peptide 12-mer PYDAADLDPTEN (human)
T16 peptide: PYDAADLDPTEN-biotin

T17: FX activation peptide 12-mer YDAADLDPTENP (human)
T17 peptide: YDAADLDPTENP-biotin

T18: FX activation peptide 12-mer DAADLDPTENPF (human)
T18 peptide: DAADLDPTENPF-biotin

T19: FX activation peptide 12-mer AADLDPTENPFD (human)
T19 peptide: AADLDPTENPFD-biotin

T20: FX activation peptide 12-mer ADLDPTENPFDL (human)
T20 peptide: ADLDPTENPFDL-biotin

T21: FX activation peptide 12-mer DLDPTENPFDLL (human)
T21 peptide: DLDPTENPFDLL-biotin

T22: FX activation peptide 12-mer LDPTENPFDLLD (human)
T22 peptide: LDPTENPFDLLD-biotin

T23: FX activation peptide 12-mer ENPFDLLDFNQT (human)
T23 peptide: ENPFDLLDFNQT-biotin

T24: FX activation peptide 12-mer NPFDLLDFNQTQ (human)
T24 peptide: NPFDLLDFNQTQ-biotin

T25: FX activation peptide 12-mer FDLLDFNQTQPE (human)
T25 peptide: FDLLDFNQTQPE-biotin

T26: FX activation peptide 12-mer DLLDFNQTQPER (human)
T26 peptide: DLLDFNQTQPER-biotin

T27: FX activation peptide 12-mer LDFNQTQPERGD (human)
T27 peptide: LDFNQTQPERGD-biotin

T28: FX activation peptide 12-mer DFNQTQPERGDN (human)
T28 peptide: DFNQTQPERGDN-biotin

T29: FX activation peptide 12-mer FNQTQPERGDNN (human)
T29 peptide: FNQTQPERGDNN-biotin

T30: FX activation peptide 12-mer NQTQPERGDNNL (human)
T30 peptide: NQTQPERGDNNL-biotin

T31: FX activation peptide 12-mer TQPERGDNNLTR (human)
T31 peptide: TQPERGDNNLTR-biotin


How the values were obtained:
[1] = target: T1, FX activation peptide 12-mer …; assay: peptide ELISA
Procedure: (§1) The peptides were C-terminally conjugated to biotin and 50 μL of 1 μg/mL peptide solution was used for immobilization in discrete wells of the microtiter plate which was pre-coated with 1 μg/mL streptavidin. Each well was washed with washing buffer (10 mM Tris, 150 mM NaCl, 2.5 mM CaCl₂, 0.05% Tween 20, pH 8.60) followed by addition of 50 μL of 2 μg/mL FLAG-tagged anti-FX Nanobody® or IgG antibody to be tested. After 1 hour non-bound Nanobody®/antibody was washed off using washing buffer.
(§2) Bound anti-FX activation peptide ligand was detected by first binding a HRP-labelled secondary antibody (for FLAG-tagged Nanobodies: Anti-FLAG mAb M2-Peroxidase (HRP) (Sigma Aldrich, US), for antibody: Fcγ Fragment Specific Peroxidase AffiniPure F(ab′)₂ Fragment Goat Anti-Human IgG (Jackson ImmunoResearch Laboratories, Inc., US), or Peroxidase AffiniPure Goat Anti-Mouse IgG (Jackson ImmunoResearch Laboratories, Inc., US)) for 1 hour, and then adding 100 μL TMB-1 ELISA substrate (Kem-En-Tec Diagnostics, Denmark).

[2] = target: T2, FX activation peptide 12-mer …; assay: peptide ELISA
Procedure: as §1, §2

[3] = target: T3, FX activation peptide 12-mer …; assay: peptide ELISA
Procedure: as §1, §2

[4] = target: T4, FX activation peptide 12-mer …; assay: peptide ELISA
Procedure: as §1, §2

[5] = target: T5, FX activation peptide 12-mer …; assay: peptide ELISA
Procedure: as §1, §2

[6] = target: T6, FX activation peptide 12-mer …; assay: peptide ELISA
Procedure: as §1, §2

[7] = target: T7, FX activation peptide 12-mer …; assay: peptide ELISA
Procedure: as §1, §2

[8] = target: T8, FX activation peptide 12-mer …; assay: peptide ELISA
Procedure: as §1, §2

[9] = target: T9, FX activation peptide 12-mer …; assay: peptide ELISA
Procedure: as §1, §2

[10] = target: T10, FX activation peptide 12-mer …; assay: peptide ELISA
Procedure: as §1, §2

[11] = target: T11, FX activation peptide 12-mer …; assay: peptide ELISA
Procedure: as §1, §2

[12] = target: T12, FX activation peptide 12-mer …; assay: peptide ELISA
Procedure: as §1, §2

[13] = target: T13, FX activation peptide 12-mer …; assay: peptide ELISA
Procedure: as §1, §2

[14] = target: T14, FX activation peptide 12-mer …; assay: peptide ELISA
Procedure: as §1, §2

[15] = target: T15, FX activation peptide 12-mer …; assay: peptide ELISA
Procedure: as §1, §2

[16] = target: T16, FX activation peptide 12-mer …; assay: peptide ELISA
Procedure: as §1, §2

[17] = target: T17, FX activation peptide 12-mer …; assay: peptide ELISA
Procedure: as §1, §2

[18] = target: T18, FX activation peptide 12-mer …; assay: peptide ELISA
Procedure: as §1, §2

[19] = target: T19, FX activation peptide 12-mer …; assay: peptide ELISA
Procedure: as §1, §2

[20] = target: T20, FX activation peptide 12-mer …; assay: peptide ELISA
Procedure: as §1, §2

[21] = target: T21, FX activation peptide 12-mer …; assay: peptide ELISA
Procedure: as §1, §2

[22] = target: T22, FX activation peptide 12-mer …; assay: peptide ELISA
Procedure: as §1, §2

[23] = target: T23, FX activation peptide 12-mer …; assay: peptide ELISA
Procedure: as §1, §2

[24] = target: T24, FX activation peptide 12-mer …; assay: peptide ELISA
Procedure: as §1, §2

[25] = target: T25, FX activation peptide 12-mer …; assay: peptide ELISA
Procedure: as §1, §2

[26] = target: T26, FX activation peptide 12-mer …; assay: peptide ELISA
Procedure: as §1, §2

[27] = target: T27, FX activation peptide 12-mer …; assay: peptide ELISA
Procedure: as §1, §2

[28] = target: T28, FX activation peptide 12-mer …; assay: peptide ELISA
Procedure: as §1, §2

[29] = target: T29, FX activation peptide 12-mer …; assay: peptide ELISA
Procedure: as §1, §2

[30] = target: T30, FX activation peptide 12-mer …; assay: peptide ELISA
Procedure: as §1, §2

[31] = target: T31, FX activation peptide 12-mer …; assay: peptide ELISA
Procedure: as §1, §2

[32] = target: human plasma-derived Factor X zymogen (human, UniProt P00742 41-179; P00742 183-488); assay: cell-based or functional assay
human plasma-derived Factor X zymogen, sequence (P00742 41-179, chain 1 of 2): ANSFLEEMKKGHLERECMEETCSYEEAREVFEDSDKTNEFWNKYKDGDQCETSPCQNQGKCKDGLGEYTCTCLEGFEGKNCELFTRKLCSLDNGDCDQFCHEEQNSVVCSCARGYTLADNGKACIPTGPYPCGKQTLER
human plasma-derived Factor X zymogen, sequence (P00742 183-488, chain 2 of 2): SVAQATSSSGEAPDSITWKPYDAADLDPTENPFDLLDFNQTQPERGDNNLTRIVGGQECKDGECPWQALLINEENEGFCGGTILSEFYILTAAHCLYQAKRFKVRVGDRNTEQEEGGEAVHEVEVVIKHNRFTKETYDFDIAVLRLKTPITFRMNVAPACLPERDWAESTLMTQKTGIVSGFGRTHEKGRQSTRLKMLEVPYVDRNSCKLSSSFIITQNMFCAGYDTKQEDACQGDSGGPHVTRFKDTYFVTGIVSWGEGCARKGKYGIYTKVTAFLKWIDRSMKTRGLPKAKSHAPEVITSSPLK

Binder | ELISA signal relative to background [1] | ELISA signal relative to background [2] | ELISA signal relative to background [3] | ELISA signal relative to background [4] | ELISA signal relative to background [5] | ELISA signal relative to background [6] | ELISA signal relative to background [7] | ELISA signal relative to background [8] | ELISA signal relative to background [9] | ELISA signal relative to background [10] | ELISA signal relative to background [11] | ELISA signal relative to background [12] | ELISA signal relative to background [13] | ELISA signal relative to background [14] | ELISA signal relative to background [15] | ELISA signal relative to background [16] | ELISA signal relative to background [17] | ELISA signal relative to background [18] | ELISA signal relative to background [19] | ELISA signal relative to background [20] | other results
Nb 701B09 (VHH, monovalent Nanobody; also called Nb 701609; not shown: C-terminal FLAG3 and HIS6 tag) VHH: EVQLVESGGGVVQPGGSLRLSCAASGRTFSTYAMGWFRQAPGKEREFVAAISWSGSRTYYADSVKGRFTISRDNSKNTVYLQMNSLRPEDTALYYCAADATPANGELDYWGQGTLVTVSS | 0.76 | 0.73 | 0.75 | 0.77 | 0.84 | 0.84 | 0.86 | 0.79 | 0.82 | 0.83 | 0.76 | 0.84 | 0.83 | 0.92 | 0.88 | 0.88 | 0.81 | 0.81 | 0.79 | 0.73 | ELISA signal relative to background [21]: 0.82; ELISA signal relative to background [22]: 0.84; ELISA signal relative to background [23]: 3.43; ELISA signal relative to background [24]: 2.16; ELISA signal relative to background [25]: 3.27; ELISA signal relative to background [26]: 1.17; ELISA signal relative to background [27]: 0.82; ELISA signal relative to background [28]: 0.87; ELISA signal relative to background [29]: 0.89; ELISA signal relative to background [30]: 0.79; ELISA signal relative to background [31]: 0.93; Increase in FX activation (fold) [32]: 83 fold
Nb 702C12 (VHH, monovalent Nanobody; not shown: C-terminal FLAG3 and HIS6 tag) VHH: EVQLVESGGGVVQPGGSLRLSCVASGRTFSRYAMGWFRQAPGKEREFVAAISRRGGSTNYADSVKGRFTISRDNSKNTVYLQMNSLRPEDTALYYCAADYSSGDGYLDYWGQGTLVTVSS | 0.96 | 1.02 | 0.97 | 0.96 | 0.86 | 0.88 | 0.93 | 0.97 | 1.06 | 1.05 | 1.08 | 1.08 | 1.1 | 1.13 | 0.8 | 0.83 | 0.87 | 0.88 | 0.88 | 0.91 | ELISA signal relative to background [21]: 1; ELISA signal relative to background [22]: 1.11; ELISA signal relative to background [23]: 4; ELISA signal relative to background [24]: 3.13; ELISA signal relative to background [25]: 4.38; ELISA signal relative to background [26]: 3.08; ELISA signal relative to background [27]: 0.97; ELISA signal relative to background [28]: 0.94; ELISA signal relative to background [29]: 1; ELISA signal relative to background [30]: 0.92; ELISA signal relative to background [31]: 1.05; Increase in FX activation (fold) [32]: 18.9 fold
Nb 729C08 (VHH, monovalent Nanobody; also called Nb 729008; not shown: C-terminal FLAG3 and HIS6 tag) VHH: EVQLVESGGGVVQPGGSLRLSCAASGFTFSDYAMSWVRQAPGKGLEWVSGITGGGRTYYADSVKGRFTISRDNSKNTLYLQMNSLRPEDTALYYCAAAILTRTRRTYDYWGQGTLVTVSS | 1.14 | 1.09 | 1.17 | 1.12 | 1.1 | 1.07 | 1.15 | 1.11 | 1.09 | 1.17 | 1.09 | 1.11 | 1.06 | 1.17 | 1.1 | 1.08 | 1.09 | 1.18 | 1.17 | 1.11 | ELISA signal relative to background [21]: 1.21; ELISA signal relative to background [23]: 8.06; ELISA signal relative to background [24]: 3.41; ELISA signal relative to background [25]: 1.15; ELISA signal relative to background [26]: 1.22; ELISA signal relative to background [27]: 1.12; ELISA signal relative to background [28]: 1.1; ELISA signal relative to background [29]: 1.08; ELISA signal relative to background [30]: 1.09; ELISA signal relative to background [31]: 1.37; Increase in FX activation (fold) [32]: > 32 fold
